Measured values taken from patent publication US20120263732A1, “CD40 ANTIBODY FORMULATION AND METHODS” (PFIZER INC., priority 2003, published 2012).

Assays:
[1] = Serum pharmacokinetics after one injection in SCID-beige mice
[2] = tested on: Fc receptors (FcR) on cynomolgus peripheral blood leukocytes; assay: 125I-antibody binding to Fc receptors on cynomolgus leukocytes; conditions: 125I-labelled antibody; 4° C., sodium azide; 21.4.1: excess unlabeled human IgG2 competitor, n=4
Method: The binding of an anti-CD40 antibody (21.4.1) to Fc receptors on human and cynomolgus leukocytes was examined.
The binding of 21.4.1 to Fc receptors (FcR) on human or cynomolgus peripheral blood leukocytes was determined by using ^125I-21.4.1 and a human IgG1 control mAb. Human leukocytes from normal donors or cynomolgus leukocytes were isolated from whole blood using plasma gel and washed thoroughly to allow dissociation of receptor-bound serum immunoglobulins. Centrifugation through a sucrose cushion was used to separate cell-bound and free antibodies. Studies were performed at 4° C. in the presence of sodium azide to prevent receptor internalization.
21.4.1 was tested for specific binding to FcR by using excess unlabeled human IgG2 isotype matched antibody as a competitor. ^125I-21.4.1 specific binding to FcR on human leukocytes (n=5 donors) was −1.0±8.5%, and specific binding to FcR on cynomolgus leukocytes (n=4) was 15±13%. […] The specific binding of the IgG1 control antibody to FcR on human and cynomolgus leukocytes accounted for 56% and 51% of the total bound radioactivity, respectively.

“21.4.1: human agonist anti-CD40 antibody; amino acid sequences SEQ ID NOs:5-8; hybridoma deposit PTA-3605” gave a Cmax serum concentration ([1]; corresponding to 0.001 mg/kg single IP) of 10 ng/mL, a Cmax serum concentration ([1]; corresponding to 0.005 mg/kg single IP) of 50 ng/mL and a Cmax serum concentration ([1]; corresponding to 0.02 mg/kg single IP) of 200 ng/mL. The “specific binding to FcR on cynomolgus leukocytes” value [2] was 15±13%.
